Experimental data: patent US20170204167A1

Experiments:
[1] = molecular target: HA of H7 pseudovirus (A/chicken/Italy/99) in which the glycosylation site (Asn-38) was removed (influenza A virus H7 A/chicken/Italy/99); assay: cell-based or functional assay
[2] = molecular target: HA of H7N3 A/Canada/444/04 (influenza A virus H7N3 A/Canada/444/04); assay: ELISA on recombinant or purified HA
[3] = molecular target: HA of H1N1 A/Brisbane/59/07 (influenza A virus H1N1 A/Brisbane/59/07); assay: ELISA on recombinant or purified HA
[4] = molecular target: HA of H5N1 A/Viet Nam/1/05 (influenza A virus H5N1 A/Viet Nam/1/05); assay: ELISA on recombinant or purified HA
[5] = molecular target: HA of H3N2 A/Brisbane/10/07 (influenza A virus H3N2 A/Brisbane/10/07); assay: ELISA on recombinant or purified HA
[6] = molecular target: HA of H6N5 A/shearwater/Australia/1/72 (influenza A virus H6N5 A/shearwater/Australia/1/72); assay: ELISA on recombinant or purified HA
[7] = molecular target: HA of H3N2 A/New York/55/04 (influenza A virus H3N2 A/New York/55/04); assay: ELISA on recombinant or purified HA
[8] = molecular target: HA of H13N6 A/gull/Maryland/704/77 (ELISA antigen) (influenza A virus H13N6 A/gull/Maryland/704/77) (UniProt P13103); assay: ELISA on recombinant or purified HA
[9] = molecular target: HA of H4N6 A/duck/Czechoslovakia/56 (ELISA antigen) (influenza A virus H4N6 A/duck/Czechoslovakia/56) (UniProt P19696); assay: ELISA on recombinant or purified HA
[10] = molecular target: HA of H10N4 A/mink/Sweded/3900/84 (influenza A virus H10N4 A/mink/Sweded/3900/84); assay: ELISA on recombinant or purified HA
[11] = molecular target: HA of H9 A/HK/1073/99 (influenza A virus H9N2 A/Hong Kong/1073/99); assay: ELISA on recombinant or purified HA
[12] = molecular target: HA of H2N2 A/Singapore/1/57 (influenza A virus H2N2 A/Singapore/1/57) (UniProt Q67333); assay: ELISA on recombinant or purified HA
[13] = molecular target: HA of H8N4 A/Alberta/357/84 (influenza A virus H8N4 A/Alberta/357/84); assay: ELISA on recombinant or purified HA
[14] = molecular target: HA of H5N1 A/Viet Nam/1203/04 (influenza A virus H5N1 A/Viet Nam/1203/04); assay: ELISA on recombinant or purified HA
[15] = molecular target: HA of H3N2 A/Wyoming/3/03 (influenza A virus H3N2 A/Wyoming/3/03); assay: ELISA on recombinant or purified HA

CR6261 (antibody) was tested. Which neutralization of H7 pseudovirus, IC50 [1] did it give?
The neutralization of H7 pseudovirus, IC50 was over 50 µg/mL.

F10 (antibody) was tested. Which neutralization of H7 pseudovirus, IC50 [1] did it give?
The neutralization of H7 pseudovirus, IC50 was over 50 µg/mL.

What does the source list for ctr (control antibody of Table 8)?
EC50 [2]: > 20 µg/mL; EC50 [3]: > 20 µg/mL; EC50 [4]: > 20 µg/mL; EC50 [5]: > 20 µg/mL; EC50 [6]: > 20 µg/mL; EC50 [7]: > 20 µg/mL; EC50 [8]: > 20 µg/mL; EC50 [9]: > 20 µg/mL; EC50 [10]: > 20 µg/mL; EC50 [11]: > 20 µg/mL; EC50 [12]: > 20 µg/mL; EC50 [13]: > 20 µg/mL; EC50 [14]: > 20 µg/mL; EC50 [15]: > 20 µg/mL
